# Laboratory results from patent US20260001937A1, “NOVEL RECOMBINANT FIBRINOGEN VARIANTS FOR FIBRIN SEALANTS FOR SURGICAL WOUND CARE” (Julius-Maximilians-Universität Würzburg, priority 2022, published 2026).
# T1: synthetic gamma-chain peptide TYS(K)AST with K changed to serine
# T1 chain: TYSSAST
# T2: Ala-rFbg (recombinant fibrinogen, gamma-chain K88A, K111A, K382A, K399A)
# T2 chain 1: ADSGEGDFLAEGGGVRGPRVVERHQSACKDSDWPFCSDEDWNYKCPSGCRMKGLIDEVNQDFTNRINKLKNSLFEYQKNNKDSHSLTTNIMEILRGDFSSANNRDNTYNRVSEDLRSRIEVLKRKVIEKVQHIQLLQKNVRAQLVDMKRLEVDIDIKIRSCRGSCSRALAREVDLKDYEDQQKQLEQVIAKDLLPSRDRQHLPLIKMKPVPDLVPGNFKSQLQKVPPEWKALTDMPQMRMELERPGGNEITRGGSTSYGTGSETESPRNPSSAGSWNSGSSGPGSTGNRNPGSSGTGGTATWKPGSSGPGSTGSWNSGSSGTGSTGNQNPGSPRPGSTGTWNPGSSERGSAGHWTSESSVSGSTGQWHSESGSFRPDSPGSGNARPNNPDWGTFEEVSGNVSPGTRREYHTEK
# T2 chain 2: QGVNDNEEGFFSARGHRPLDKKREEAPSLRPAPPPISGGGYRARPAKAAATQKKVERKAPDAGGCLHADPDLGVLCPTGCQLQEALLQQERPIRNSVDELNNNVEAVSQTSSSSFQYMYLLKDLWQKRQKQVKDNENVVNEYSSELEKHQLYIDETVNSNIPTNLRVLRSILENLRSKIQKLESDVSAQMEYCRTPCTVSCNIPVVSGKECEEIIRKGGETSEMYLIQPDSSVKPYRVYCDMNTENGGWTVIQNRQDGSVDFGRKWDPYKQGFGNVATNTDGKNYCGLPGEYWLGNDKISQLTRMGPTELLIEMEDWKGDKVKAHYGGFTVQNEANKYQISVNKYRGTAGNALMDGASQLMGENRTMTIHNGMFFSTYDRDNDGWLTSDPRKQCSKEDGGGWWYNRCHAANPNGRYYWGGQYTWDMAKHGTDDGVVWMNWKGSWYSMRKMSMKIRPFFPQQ
# T2 chain 3: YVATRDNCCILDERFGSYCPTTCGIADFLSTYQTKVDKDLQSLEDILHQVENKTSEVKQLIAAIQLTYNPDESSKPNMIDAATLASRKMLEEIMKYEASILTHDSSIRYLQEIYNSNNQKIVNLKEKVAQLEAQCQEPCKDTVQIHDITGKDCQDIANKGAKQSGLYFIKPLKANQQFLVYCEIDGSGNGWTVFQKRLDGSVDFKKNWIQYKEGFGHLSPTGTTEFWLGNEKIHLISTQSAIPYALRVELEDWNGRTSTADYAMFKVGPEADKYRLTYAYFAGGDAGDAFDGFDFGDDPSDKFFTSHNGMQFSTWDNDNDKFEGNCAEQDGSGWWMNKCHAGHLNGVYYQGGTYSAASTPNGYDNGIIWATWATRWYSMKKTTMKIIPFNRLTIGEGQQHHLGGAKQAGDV
# T3: synthetic gamma-chain peptide QLI(K)AIQ with K changed to serine
# T3 chain: QLISAIQ
# T4: synthetic gamma-chain peptide ATL(K)SRM with K changed to serine
# T4 chain: ATLSSRM
# T5: WT-Fbg (human fibrinogen, SigmaAldrich), P02671
# T5 chain 1: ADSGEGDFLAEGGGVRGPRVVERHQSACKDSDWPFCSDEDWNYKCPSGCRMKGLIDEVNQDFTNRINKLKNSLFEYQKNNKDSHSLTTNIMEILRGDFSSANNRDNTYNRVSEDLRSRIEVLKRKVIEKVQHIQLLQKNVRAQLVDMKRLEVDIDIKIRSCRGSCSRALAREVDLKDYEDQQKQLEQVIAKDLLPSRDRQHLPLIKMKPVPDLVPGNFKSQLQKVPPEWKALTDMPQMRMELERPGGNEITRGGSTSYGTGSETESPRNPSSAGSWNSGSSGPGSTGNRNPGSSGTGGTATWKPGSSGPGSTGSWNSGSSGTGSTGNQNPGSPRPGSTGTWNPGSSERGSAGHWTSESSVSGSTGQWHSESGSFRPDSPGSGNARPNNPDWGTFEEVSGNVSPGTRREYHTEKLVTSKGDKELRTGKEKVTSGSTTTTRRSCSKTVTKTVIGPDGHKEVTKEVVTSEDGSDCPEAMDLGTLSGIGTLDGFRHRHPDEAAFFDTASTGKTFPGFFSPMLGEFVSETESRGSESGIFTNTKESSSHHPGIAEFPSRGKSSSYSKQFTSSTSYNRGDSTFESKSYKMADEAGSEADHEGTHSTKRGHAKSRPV
# T5 chain 2: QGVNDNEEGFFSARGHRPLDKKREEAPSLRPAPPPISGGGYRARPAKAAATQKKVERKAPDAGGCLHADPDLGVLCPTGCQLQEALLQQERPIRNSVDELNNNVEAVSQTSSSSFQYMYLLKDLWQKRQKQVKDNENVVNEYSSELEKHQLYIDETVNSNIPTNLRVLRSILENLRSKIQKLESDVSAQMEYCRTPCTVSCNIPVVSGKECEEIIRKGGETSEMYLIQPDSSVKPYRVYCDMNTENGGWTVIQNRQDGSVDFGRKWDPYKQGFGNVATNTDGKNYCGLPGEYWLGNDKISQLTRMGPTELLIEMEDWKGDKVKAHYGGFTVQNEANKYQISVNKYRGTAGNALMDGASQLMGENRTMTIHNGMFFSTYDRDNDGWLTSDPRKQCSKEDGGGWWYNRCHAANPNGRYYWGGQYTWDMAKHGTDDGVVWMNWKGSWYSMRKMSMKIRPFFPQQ
# T5 chain 3: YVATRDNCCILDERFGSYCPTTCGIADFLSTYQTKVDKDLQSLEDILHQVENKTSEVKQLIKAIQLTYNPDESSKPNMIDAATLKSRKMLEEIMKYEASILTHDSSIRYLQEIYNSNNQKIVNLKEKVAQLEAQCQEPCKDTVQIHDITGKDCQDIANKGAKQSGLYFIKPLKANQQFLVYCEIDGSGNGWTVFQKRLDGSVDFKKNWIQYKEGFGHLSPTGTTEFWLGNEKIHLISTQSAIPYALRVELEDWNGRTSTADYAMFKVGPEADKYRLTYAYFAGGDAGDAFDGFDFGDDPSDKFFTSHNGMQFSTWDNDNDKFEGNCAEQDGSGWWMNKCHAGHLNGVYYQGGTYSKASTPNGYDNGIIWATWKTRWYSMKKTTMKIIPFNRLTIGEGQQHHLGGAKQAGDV
# Legend:
# [1] = target: T1, synthetic gamma-chain peptide TYS(K)AST …
# [2] = target: T2, Ala-rFbg (recombinant fibrinogen, …)
# [3] = target: T3, synthetic gamma-chain peptide QLI(K)AIQ …
# [4] = target: T4, synthetic gamma-chain peptide ATL(K)SRM …
# [5] = target: T5, WT-Fbg (human fibrinogen, …)
protein,measurement,setting,value
human plasmin (Merck) (protein) KVYLSECKTGNGKNYRGTMSKTKNGITCQKWSSTSPHRPRFSPATHPSEGLEENYCRNPDNDPQGPWCYTTDPEKRYDYCDILECEEECMHCSGENYDGKISKTMSGLECQAWDSQSPHAHGYIPSKFPNKNLKKNYCRNPDRELRPWCFTTDPNKRWELCDIPRCTTPPPSSGPTYQCLKGTGENYRGNVAVTVSGHTCQHWSAQTPHTHNRTPENFPCKNLDENYCRNPDGKRAPWCHTTNSQVRWEYCKIPSCDSSPVSTEQLAPTAPPELTPVVQDCYHGDGQSYRGTSSTTTTGKKCQSWSSMTPHRHQKTPENYPNAGLTMNYCRNPDADKGPWCFTTDPSVRWEYCNLKKCSGTEASVVAPPPVVLLPDVETPSEEDCMFGNGKGYRGKRATTVTGTPCQDWAAQEPHRHSIFTPETNPRAGLEKNYCRNPDGDVGGPWCYTTNPRKLYDYCDVPQCAAPSFDCGKPQVEPKKCPGRVVGGCVAHPHSWPWQVSLRTRFGMHFCGGTLISPEWVLTAAHCLEKSPRPSSYKVILGAHQEVNLEPHVQEIEVSRLFLEPTRKDIALLKLSSPAVITDKVIPACLPSPNYVVADRTECFITGWGETQGTFGAGLLKEAQLPVIENKVCNRYEFLNGRVQSTELCAGHLAGGTDSCQGDSGGPLVCFEKDKYILQGVTSWGLGCARPNKPGVYVRVSRFVTWIEGVMRNN,"plasmin cleavage efficiency of synthetic peptide, HPLC",[1],Peptide sequences including S instead of K showed a significant reduction in cleavage efficiency compared to the original sequences
same,plasmin cleavage analysis of target sites (peptide fragments detected by MS),[2],Position 382 shows a partial cleavage for the mutants (both cleaved and non-cleaved peptides detected)
same,"plasmin cleavage at the mutated gamma-chain sites 88, 111, 382, 399, high-resolution ESI-MS after 24 h digest in solution",[2],no cleavage was detected in either of the two mutants for all 4 mutations
same,"plasmin cleavage efficiency of synthetic peptide, HPLC",[3],Peptide sequences including S instead of K showed a significant reduction in cleavage efficiency compared to the original sequences
same,"plasmin cleavage efficiency of synthetic peptide, HPLC",[4],Peptide sequences including S instead of K showed a significant reduction in cleavage efficiency compared to the original sequences
same,"plasmin cleavage sites in the gamma-chain, high-resolution ESI-MS after 24 h digest in solution (0.5 U/mL plasmin)",[5],"the 4 different cleavage sites K88, K111, K382, K399 in the WT could be detected"
